Patent US6642040B2, “Human cGMP-stimulated cyclic nucleotide phosphodiesterase” (The Board of Regents of the University of Washington, priority 1991, dated 2003)

How the values were obtained:
cGS-PDE activity = cGS-PDE activity of membrane and supernatant fractions of transfected COS-7 cells; assay type: biochemical, bovine
Source text: Transient expression of the CGS-PDE cDNA in COS-7 cells was accomplished as in Example I. A 4.2 kb fragment of p3CGS-5 was isolated using HindIII and NotI and was inserted into plasmid pCDM8, which had been digested with the same enzymes. The character of products produced in COS-7 cells transformed with the p3CGS-5/pCDM8 construct is discussed in Example V, infra.
For transient expression in COS-7 cells, a 3.8 kb fragment of pBBCGSPDE-7 was isolated using HindIII and NotI and inserted into plasmid pCDM8 which had been cut with HindIII and NotI restriction endonucleases. The recombinant pBBCGSPDE-7/CDM8 construct was used to transiently transfect COS-7 cells. The properties of the pBBCGSPDE-7/CDM8 construct and the p3CGS-5/CDM8 construct prepared in Example IV products were subsequently compared. Membrane and supernatant fractions were prepared from extracts of transfected COS-7 cells and assayed for cGS-PDE activity. […] However, a 10-fold greater percentage of total cGS-PDE activity was detected in membranes from COS-7 cell extracts transfected with the pBBCGSPDE-7/CDM8 construct than in membranes prepared from p3CGS-5/CDM8-transfected COS-7 cells.

cAMP and cGMP hydrolysis [1] = test: CaM-dependent PDE activity of homogenates of COS-7 cells transfected with 63 kDa CaM-PDE cDNA; assay type: biochemical, bovine; details: COS-7 cell homogenates
Method: COS cells were scraped from the plates and homogenized in a buffer containing 40 mM Tris-HCl (pH=7.5), 5 mM EDTA, 15 mM benzamidine, 15 mM beta-mercaptoethanol, 1 μg per ml pepstatin A and 1 μg per ml peupeptin using a Dounce homogenizer (1 ml per 100 mm plate). Homogenates were assayed for PDE activity according to the procedures of Hanson et al., Proc. Nat'l. Acad. Sci. U.S.A., 79:2788-2792 (1982), using [^3H]cGMP as the substrate. Reactions were carried out at 300 for 10 minutes in a buffer containing 20 mM Tris-HCl (pH=7.5), 20 mM imidazole (pH=7.5), 3 mM MgCl2, 15 mM Mg acetate, 0.2 mg per ml BSA and 1 μM ^3H-cAMP with either 2 mM EGTA or 0.2 mM CaCl2 and 4 μg per ml CaM. Assays were stopped by incubating the tubes in a 900 water bath for 1 minute. After cooling, 10 μl of 2.5 mg per ml snake venom was added to each assay and incubated at 370 for 5 minutes. […] Samples were counted for 1 minute using a Packard Model 1600TR scintillation counter. Specific cyclic nucleotide hydrolytic activity was expressed as picomoles cAMP or cGMP hydrolyzed per minute per mg protein. […]
COS-7 cells were transfected with the p12.3.a/CDM8 construct or mock transfected with the CDM8 vector alone using the DEAE-dextran method as described in Example 1. […] CaM-dependent and independent activities were determined as in Example 1.

calmodulin = calmodulin (Homo sapiens, UniProt P0DP23); details: cited from earlier work
cAMP and cGMP hydrolysis [2] = test: PDE activity of homogenates of COS-7 cells transfected with 61 kDa CaM-PDE cDNA; assay type: biochemical, bovine; details: COS-7 cell extracts

B1: pBBCGSPDE-7/CDM8: expression product of bovine brain cGS-PDE cDNA (SEQ ID NO: 43) (protein)
chain: MGQACGHSILCRSQQYPAARPAEPRGQQVFLKPDEPPPPPQPCADSLQDALLSLGSVIDVAGLQQAVKEALSAVLPKVETVYTYLLDGESRLVCEEPPHELPQEGKVREAVISRKRLGCNGLGPSDLPGKPLARLVAPLAPDTQVLVIPLVDKEAGAVAAVILVHCGQLSDNEEWSLQAVEKHTLVALKRVQALQQRESSVAPEATQNPPEEAAGDQKGGVAYTDQDRKILQLCGELYDLDASSLQLKVLQYLQQETQASRCCLLLVSEDNLQLSCKVIGDKVLEEEISFPLTTGRLGQVVEDKKSIQLKDLTSEDMQQLQSMLGCEVQAMLCVPVISRATDQVVALACAFNKLGGDLFTDQDEHVIQHCFHYTSTVLTSTLAFQKEQKLKCECQALLQVAKNLFTHLDDVSVLLQEIITEARNLSNAEICSVFLLDQNELVAKVFDGGVVEDESYEIRIPADQGIAGHVATTGQILNIPDAYAHPLFYRGVDDSTGFRTRNILCFPIKNENQEVIGVAELVNKINGPWFSKFDEDLATAFSIYCGISIAHSLLYKKVNEAQYRSHLANEMMMYHMKVSDDEYTKLLHDGIQPVAAIDSNFASFTYTPRSLPEDDTSMAILSMLQDMNFINNYKIDCPTLARFCLMVKKGYRDPPYHNWMHAFSVSHFCYLLYKNLELTNYLEDMEIFALFISCMCHDLDHRGTNNSFQVASKSVLAALYSSEGSVMERHHFAQAIAILNTHGCNIFDHFSRKDYQRMLDLMRDIILATDLAHHLRIFKDLQKMAEVGYDRTNKQHHSLLLCLLMTSCDLSDQTKGWKTTRKIAELIYKEFFSQGDLEKAMGNRPMEMMDREKAYIPELQISFMEHIAMPIYKLLQDLFPKAAELYERVASNREHWTKVSHKFTIRGLPSNNSLDFLDEEYEVPDLDGARAPINGCCSLDAE
cGS-PDE activity; membranes from COS-7 cell extracts
  percentage of total cGS-PDE activity detected in membranes, relative to p3CGS-5/CDM8-transfected cells: 10 fold
cGS-PDE activity; most of the activity in supernatant fractions
  cGS-PDE activity in COS-7 cell extracts: produced cGS-PDE activities

B2: p12.3.a: expression product of bovine brain 63 kDa CaM-PDE cDNA clone (SEQ ID NO: 27) (protein)
chain: MELSPRSPPEMLESDCPSPLELKSAPSKKMWIKLRSLLRYMVKQLENGEVNIEELKKNLEYTASLLEAVYIDETRQILDTEDELQELRSDAVPSEVRDWLASTFTQQTRAKGPSEEKPKFRSIVHAVQAGIFVERMFRRTYTSVGPTYSTAVLNCLKNVDLWCFDVFSLNRAADDHALRTIVFELLTRHNLISRFKIPTVFLMTFLDALETGYGKYKNPYHNQIHAADVTQTVHCFLLRTGMVHCLSEIEVLAIIFAAAIHDYEHTGTTNSFHIQTKSECAILYNDRSVLENHHISSVFRMMQDDEMNIFINLTKDEFVELRALVIEMVLATDMSCHFQQVKSMKTALQQLERIDKSKALSLLLHAADISHPTKQWSVHSRWTKALMEEFFRQGDKEAELGLPFSPLCDRTSTLVAQSQIGFIDFIVEPTFSVLTDVAEKSVQPTGDDDSKSKNQPSFQWRQPSLDVEVGDPNPDVVSFRSTWTKYIQENKQKWKERAASGITNQMSIDELSPCEEEAPASPAEDEHNQNGNLD
cAMP and cGMP hydrolysis [1]
  increase in CaM-stimulated cAMP phosphodiesterase activity over basal levels: 15 fold
  increase in CaM-stimulated cGMP phosphodiesterase activity over basal levels: 12 fold

B3: 59 kDa isozyme: 59 kDa CaM-PDE isozyme isolated from bovine heart (protein, UniProt P14100 1-530, looked up)
Dual specificity …: MGSTATETEELENTTFKYLIGEQTEKMWQRLKGILRCLVKQLEKGDVNVIDLKKNIEYAASVLEAVYIDETRRLLDTDDELSDIQSDSVPSEVRDWLASTFTRKMGMMKKKSEEKPRFRSIVHVVQAGIFVERMYRKSYHMVGLAYPEAVIVTLKDVDKWSFDVFALNEASGEHSLKFMIYELFTRYDLINRFKIPVSCLIAFAEALEVGYSKYKNPYHNLIHAADVTQTVHYIMLHTGIMHWLTELEILAMVFAAAIHDYEHTGTTNNFHIQTRSDVAILYNDRSVLENHHVSAAYRLMQEEEMNVLINLSKDDWRDLRNLVIEMVLSTDMSGHFQQIKNIRNSLQQPEGLDKAKTMSLILHAADISHPAKSWKLHHRWTMALMEEFFLQGDKEAELGLPFSPLCDRKSTMVAQSQIGFIDFIVEPTFSLLTDSTEKIIIPLIEEDSKTKTPSYGASRRSNMKGTTNDGTYSPDYSLASVDLKSFKNSLVDIIQQNKERWKELAAQGEPDPHKNSDLVNAEEKHAETHS
calmodulin
  affinity for calmodulin relative to the 61 kDa brain isozyme: 10-20 fold

B4: pCAM-40: expression product of plasmid pCAM-40, full length bovine brain 61 kDa CaM-PDE (SEQ ID NO: 6) (protein)
chain: MGSTATETEELENTTFKYLIGEQTEKMWQRLKGILRCLVKQLEKGDVNVIDLKKNIEYAASVLEAVYIDETRRLLDTDDELSDIQSDSVPSEVRDWLASTFTRKMGMMKKKSEEKPRFRSIVHVVQAGIFVERMYRKSYHMVGLAYPEAVIVTLKDVDKWSFDVFALNEASGEHSLKFMIYELFTRYDLINRFKIPVSCLIAFAEALEVGYSKYKNPYHNLIHAADVTQTVHYIMLHTGIMHWLTELEILAMVFAAAIHDYEHTGTTNNFHIQTRSDVAILYNDRSVLENHHVSAAYRLMQEEEMNVLINLSKDDWRDLRNLVIEMVLSTDMSGHFQQIKNIRNSLQQPEGLDKAKTMSLILHAADISHPAKSWKLHHRWTMALMEEFFLQGDKEAELGLPFSPLCDRKSTMVAQSQIGFIDFIVEPTFSLLTDSTEKIIIPLIEEDSKTKTPSYGASRRSNMKGTTNDGTYSPDYSLASVDLKSFKNSLVDIIQQNKERWKELAAQGEPDPHKNSDLVNAEEKHAETHS
cAMP and cGMP hydrolysis [2]; in the presence of EGTA
  cAMP and cGMP hydrolytic activities compared to mock transfected cells: significantly greater
cAMP and cGMP hydrolysis [2]; in the presence of calcium and CaM
  effect of calcium and CaM on cAMP and cGMP hydrolysis: stimulation
